From patent US20150132305A1 (ADHERON THERAPEUTICS, published 2015)

T1: recombinant Cad-11 EC1 human IgG1 fusion protein (R&D Systems Cat. No. 1790-CA-050) (human, UniProt P55287 54-617, limits assumed)
T1 construct: bought; also called recombinant human Cad-11 EC1; recombinant human Cad-11 fusion protein; not shown: human IgG1 part
T1 sequence: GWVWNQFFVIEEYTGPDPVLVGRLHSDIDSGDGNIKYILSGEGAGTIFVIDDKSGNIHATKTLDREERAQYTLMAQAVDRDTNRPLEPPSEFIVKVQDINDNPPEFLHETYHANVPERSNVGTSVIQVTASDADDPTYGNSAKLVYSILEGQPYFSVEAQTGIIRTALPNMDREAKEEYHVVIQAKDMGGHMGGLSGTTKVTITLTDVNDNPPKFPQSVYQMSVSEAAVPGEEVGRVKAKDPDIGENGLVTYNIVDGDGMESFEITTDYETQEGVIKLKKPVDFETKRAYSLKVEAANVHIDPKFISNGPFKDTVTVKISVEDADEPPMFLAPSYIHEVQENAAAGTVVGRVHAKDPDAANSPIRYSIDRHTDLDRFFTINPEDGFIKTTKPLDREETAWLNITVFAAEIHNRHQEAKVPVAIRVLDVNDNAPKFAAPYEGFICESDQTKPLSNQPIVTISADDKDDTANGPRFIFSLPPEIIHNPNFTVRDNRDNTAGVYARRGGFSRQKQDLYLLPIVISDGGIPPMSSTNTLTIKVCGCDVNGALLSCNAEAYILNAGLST

B1: SDP081 humanized anti-Cad-11 EC1 antibody (Vκ2/VH3) (antibody, IgG4, V domains shown)
VH: EVQLVQSGAEVKKPGASVKISCKASGYSFTGYFMNWVRQAPGQGLEWIGRINPYTGDTFYNQKFKGRATLTVDKSTSTAYMELSSLRSEDTAVYYCGRLGSRYWYFDVWGQGTTVTVSS
VL: DVLMTQTPLSSPVTLGQPASISCRSSQSIIHSNGNTYLEWYLQKPGQSPQLLIYKVSNRFSGVPDRFSGSGSGTDFTLKISRVEAEDVGVYYCFQGSHVPWTFGQGTKLEIK
notes: humanized IgG4 (S241P), kappa
B2: SDP091 humanized anti-Cad-11 EC1 antibody (Vκ2/VH4) (antibody, IgG4, V domains shown)
VH: EVQLVQSGAEVKKPGASVKVSCKASGYSFTGYFMNWVRQAPGQGLEWIGRINPYTGDTFYNQKFKGRATITVDKSTSTAYMELSSLRSEDTAVYYCGRLGSRYWYFDVWGQGTTVTVSS
VL: DVLMTQTPLSSPVTLGQPASISCRSSQSIIHSNGNTYLEWYLQKPGQSPQLLIYKVSNRFSGVPDRFSGSGSGTDFTLKISRVEAEDVGVYYCFQGSHVPWTFGQGTKLEIK
notes: humanized IgG4 (S241P), kappa
B3: SDP041 humanized anti-Cad-11 EC1 antibody (Vκ1/VH4) (antibody, IgG4, V domains shown)
VH: EVQLVQSGAEVKKPGASVKVSCKASGYSFTGYFMNWVRQAPGQGLEWIGRINPYTGDTFYNQKFKGRATITVDKSTSTAYMELSSLRSEDTAVYYCGRLGSRYWYFDVWGQGTTVTVSS
VL: DVLMTQTPLSSPVTLGQPASISCRSSQSIIHSNGNTYLEWYLQKPGQSPQLLIYKVSNRFSGVPDRFTGSGSGTDFTLKISRVEAEDVGVYYCFQGSHVPWTFGQGTKLEIK
notes: humanized IgG4 (S241P), kappa
B4: SDP121 humanized anti-Cad-11 EC1 antibody (Vκ3/VH2) (antibody, IgG4, V domains shown)
VH: EVQLVQSGAEVKKPGASVKISCKASGYSFTGYFMNWVKQAPGQGLEWIGRINPYTGDTFYNQKFKGRATLTVDKSTSTAYMELSSLRSEDTAVYYCGRLGSRYWYFDVWGQGTTVTVSS
VL: DVVMTQTPLSSPVTLGQPASISCRSSQSIIHSNGNTYLEWYLQKPGQSPQLLIYKVSNRFSGVPDRFSGSGSGTDFTLKISRVEAEDVGVYYCFQGSHVPWTFGQGTKLEIK
notes: humanized IgG4 (S241P), kappa
B5: SDP141 humanized anti-Cad-11 EC1 antibody (Vκ3/VH4) (antibody, IgG4, V domains shown)
VH: EVQLVQSGAEVKKPGASVKVSCKASGYSFTGYFMNWVRQAPGQGLEWIGRINPYTGDTFYNQKFKGRATITVDKSTSTAYMELSSLRSEDTAVYYCGRLGSRYWYFDVWGQGTTVTVSS
VL: DVVMTQTPLSSPVTLGQPASISCRSSQSIIHSNGNTYLEWYLQKPGQSPQLLIYKVSNRFSGVPDRFSGSGSGTDFTLKISRVEAEDVGVYYCFQGSHVPWTFGQGTKLEIK
notes: humanized IgG4 (S241P), kappa
B6: SDP031 humanized anti-Cad-11 EC1 antibody (Vκ1/VH3) (antibody, IgG4, V domains shown)
VH: EVQLVQSGAEVKKPGASVKISCKASGYSFTGYFMNWVRQAPGQGLEWIGRINPYTGDTFYNQKFKGRATLTVDKSTSTAYMELSSLRSEDTAVYYCGRLGSRYWYFDVWGQGTTVTVSS
VL: DVLMTQTPLSSPVTLGQPASISCRSSQSIIHSNGNTYLEWYLQKPGQSPQLLIYKVSNRFSGVPDRFTGSGSGTDFTLKISRVEAEDVGVYYCFQGSHVPWTFGQGTKLEIK
notes: humanized IgG4 (S241P), kappa
B7: SDP151 humanized anti-Cad-11 EC1 antibody (Vκ3/VH5) (antibody, IgG4, V domains shown)
VH: EVQLVQSGAEVKKPGASVKVSCKASGYSFTGYFMNWVRQAPGQGLEWIGRINPYTGDTFYNQKFKGRVTITVDKSTSTAYMELSSLRSEDTAVYYCGRLGSRYWYFDVWGQGTTVTVSS
VL: DVVMTQTPLSSPVTLGQPASISCRSSQSIIHSNGNTYLEWYLQKPGQSPQLLIYKVSNRFSGVPDRFSGSGSGTDFTLKISRVEAEDVGVYYCFQGSHVPWTFGQGTKLEIK
notes: humanized IgG4 (S241P), kappa
B8: SDP011 humanized anti-Cad-11 EC1 antibody (Vκ1/VH1) (antibody, IgG4, V domains shown)
VH: EVQLVQSGPELKKPGASVKISCKASGYSFTGYFMNWVKQAHGQGLEWIGRINPYTGDTFYNQKFKGRATLTVDKSSSTAYMELVSLSSEDSAVYYCGRLGSRYWYFDVWGQGTTVTVSS
VL: DVLMTQTPLSSPVTLGQPASISCRSSQSIIHSNGNTYLEWYLQKPGQSPQLLIYKVSNRFSGVPDRFTGSGSGTDFTLKISRVEAEDVGVYYCFQGSHVPWTFGQGTKLEIK
notes: humanized IgG4 (S241P), kappa
B9: SDP131 humanized anti-Cad-11 EC1 antibody (Vκ3/VH3) (antibody, IgG4, V domains shown)
VH: EVQLVQSGAEVKKPGASVKISCKASGYSFTGYFMNWVRQAPGQGLEWIGRINPYTGDTFYNQKFKGRATLTVDKSTSTAYMELSSLRSEDTAVYYCGRLGSRYWYFDVWGQGTTVTVSS
VL: DVVMTQTPLSSPVTLGQPASISCRSSQSIIHSNGNTYLEWYLQKPGQSPQLLIYKVSNRFSGVPDRFSGSGSGTDFTLKISRVEAEDVGVYYCFQGSHVPWTFGQGTKLEIK
notes: humanized IgG4 (S241P), kappa
B10: SDP111 humanized anti-Cad-11 EC1 antibody (Vκ3/VH1) (antibody, IgG4, V domains shown)
VH: EVQLVQSGPELKKPGASVKISCKASGYSFTGYFMNWVKQAHGQGLEWIGRINPYTGDTFYNQKFKGRATLTVDKSSSTAYMELVSLSSEDSAVYYCGRLGSRYWYFDVWGQGTTVTVSS
VL: DVVMTQTPLSSPVTLGQPASISCRSSQSIIHSNGNTYLEWYLQKPGQSPQLLIYKVSNRFSGVPDRFSGSGSGTDFTLKISRVEAEDVGVYYCFQGSHVPWTFGQGTKLEIK
notes: humanized IgG4 (S241P), kappa
B11: SDP101 humanized anti-Cad-11 EC1 antibody (Vκ2/VH5) (antibody, IgG4, V domains shown)
VH: EVQLVQSGAEVKKPGASVKVSCKASGYSFTGYFMNWVRQAPGQGLEWIGRINPYTGDTFYNQKFKGRVTITVDKSTSTAYMELSSLRSEDTAVYYCGRLGSRYWYFDVWGQGTTVTVSS
VL: DVLMTQTPLSSPVTLGQPASISCRSSQSIIHSNGNTYLEWYLQKPGQSPQLLIYKVSNRFSGVPDRFSGSGSGTDFTLKISRVEAEDVGVYYCFQGSHVPWTFGQGTKLEIK
notes: humanized IgG4 (S241P), kappa
B12: SDP021 humanized anti-Cad-11 EC1 antibody (Vκ1/VH2) (antibody, IgG4, V domains shown)
VH: EVQLVQSGAEVKKPGASVKISCKASGYSFTGYFMNWVKQAPGQGLEWIGRINPYTGDTFYNQKFKGRATLTVDKSTSTAYMELSSLRSEDTAVYYCGRLGSRYWYFDVWGQGTTVTVSS
VL: DVLMTQTPLSSPVTLGQPASISCRSSQSIIHSNGNTYLEWYLQKPGQSPQLLIYKVSNRFSGVPDRFTGSGSGTDFTLKISRVEAEDVGVYYCFQGSHVPWTFGQGTKLEIK
notes: humanized IgG4 (S241P), kappa

Legend:
[1] = biological target: T1, recombinant Cad-11 EC1 human IgG1 …; test: competition ELISA against biotinylated SYN0012/H1M1 (competitor) on coated fusion protein; text says values are normalised to the IC50 of SYN0012
Procedure: (§1) The binding of the purified humanized composite variant antibodies (SDP011 to SDP151) to a recombinant Cad-11 EC1 human IgG1 fusion protein was assessed in a competition binding ELISA. A dilution series from 5 μg/ml to 0.0022 μg/ml of the humanized or control (SYN0012/H1M1) antibodies was premixed with a constant concentration of biotinylated murine anti-Cad-11 antibody, SYN0012/H1M1 (0.1 μg/ml, final concentration), before incubating for 1 hour at room temperature on a NUNC-IIMMUNO™ MAXISORP™ 96 well flat bottom microtitre plate (Fisher Cat. No. DIS-971-030J) pre-coated with 0.25 μg/ml recombinant human Cad-11 EC1 (R&D Systems Cat. No. 1790-CA-050) diluted in PBS. The binding of the biotinylated mAb was detected with streptavidin-HRP (Sigma Cat. No. 55512) and tetramethylbenzidine (TMB) substrate (Invitrogen Cat. No. 00-2023).
(§2) All of the humanized anti-Cad-11 antibodies efficiently competed with SYN0012 for binding to the Cad-11 fusion protein (FIGS. 38A to C). […] The curves were used to calculate IC50 values for each antibody and these were normalized to the IC50 of SYN0012, which was included on each ELISA plate so that comparisons between plates could be made (Table 3). The expression levels of each cell line and the calculated isoelectric point (pI) of each antibody are also shown (Table 3).
The relative IC50 was calculated by dividing the value for the test antibody by that of SYN0012. Antibody expression levels given are for static cultures in T flasks. PI are calculated.

[2] = biological target: T1, recombinant Cad-11 EC1 human IgG1 …; test: competition ELISA on coated recombinant human Cad-11 EC1 fusion protein against biotinylated SYN0012 (0.1 µg/ml)
Procedure: as §1, §2

[3] = biological target: T1, recombinant Cad-11 EC1 human IgG1 …; test: competition ELISA: antibody dilution series premixed with 0.1 µg/ml biotinylated SYN0012/H1M1, plate coated with recombinant human Cad-11 EC1 fusion protein, streptavidin-HRP, OD450
Procedure: as §1, §2

Binder | IC50 [1] | IC50 (read off the curve) [2] | IC50 (read off the curve) [3]
B1 | 0.42 µg/mL | – | –
B2 | 0.57 µg/mL | – | –
B3 | 0.65 µg/mL | ~0.1 µg/mL | –
B4 | 0.52 µg/mL | – | ~0.2 µg/mL
B5 | 0.61 µg/mL | – | ~0.2 µg/mL
B6 | 0.84 µg/mL | ~0.2 µg/mL | –
B7 | 0.72 µg/mL | – | ~0.2 µg/mL
B8 | 0.91 µg/mL | ~0.2 µg/mL | –
B9 | 0.55 µg/mL | – | ~0.2 µg/mL
B10 | 0.68 µg/mL | – | ~0.2 µg/mL
B11 | 0.53 µg/mL | – | –
B12 | 0.67 µg/mL | ~0.1 µg/mL | –
